As a reminder, the IC50 is the concentration at which inhibition is half-maximal. A low value points to greater potency in that assay.

This passage reports IC50 results from publication PMC2933939 (Bioorganic & medicinal chemistry, 2010).

The experiment concerns the target Heat shock protein 90 (Hsp90), purified, native (UniProt P07900 1-732). Kind of experiment: pull-down.

B1: Sansalvamide A-amide (San A-amide), compound 1, macrocycle Phe-Leu-Val-Leu-Leu (peptide)
peptide: FLVLL
modifications: head-to-tail cyclised macrocycle (cyclic pentapeptide)
For the molecule B1, the half-inhibitory concentration (IC50) turned out to be 19.7 µM.
